Several values for one entry are separate records, joined by “and”; a condition that tells them apart may be missing. Identical values can stand only once.

For assay [1], the target named is Fluos-msR4M-L1 (human) (UniProt P61073). In words: other fluorescence titration; 5 nM Fluos-labeled ectodomain peptide titrated with unlabeled MIF, MIF peptide or CXCL12; 10 mM sodium phosphate, pH 7.4, 1% HFIP; emission at 522 nm; apparent KD, 1/1 binding model; one constant for each of three curves.
Assay [2] concerns the target 5(6)-carboxytetramethylrhodamine (TAMRA)-msR4M-L1 (human) (UniProt P61073). In words: MST; 100 nM TAMRA-msR4M-L1 titrated with MIF or CXCL12; 20 mM sodium phosphate, pH 7.2, Tween-20; 37 °C; apparent KD.
In assay [3] the target is Fluos-msR4M-L1 (human) (UniProt P61073). In words: fluorescence polarisation; 5 nM Fluos-msR4M-L1 titrated with unlabeled MIF (0.5 to 277.5 nM); 10 mM sodium phosphate, pH 7.2, 0.5% HFIP; RT; apparent KD.
For assay [4], the target named is Fluos-ECL2 (fluorescein-labelled ECL2[182–196] peptide of CXCR4) (human) (UniProt P61073). In words: other fluorescence titration; Fluos-labelled CXCR4 ectodomain peptide at 5 nM titrated with unlabelled MIF, MIF(10xAla), CXCL12 or MIF peptide fragments; 10 mM sodium phosphate, pH 7.4, 1% HFIP; emission at 522 nm; apparent KD, 1/1 binding model.

On to “MIF peptide 38–80 (from UniProt P14174 38-80)”, for which the Kd in the assay with Fluos-msR4M-L1 (human) [1] was 0.0646 µM and 0.049 µM and 0.0577 µM.

On to “MIF peptide 54–80 (from UniProt P14174 54-80)”, for which the Kd with Fluos-msR4M-L1 (human) [1] is 0.0866 µM and 0.0597 µM and 0.0653 µM.

Consider “macrophage migration-inhibitory factor (MIF), recombinant human (from UniProt P14174 1-115) (natural protein)”, for which the Kd in assay [2] was 0.0517 µM and 0.12 µM and 0.0601 µM; in the assay with Fluos-msR4M-L1 (human) [3] it was 0.0241 µM and 0.0193 µM and 0.0299 µM; with Fluos-msR4M-L1 (human) [1] it was 0.0447 µM and 0.0404 µM and 0.0369 µM.

On to “macrophage migration-inhibitory factor (MIF), recombinant human, unlabelled (from UniProt P14174 1-115) (natural protein)”, for which, in assay [4], the Kd was more than 5 µM.

Values taken from publication PMC7689490, “Designed CXCR4 mimic acts as a soluble chemokine receptor that blocks atherogenic inflammation by agonist-specific targeting” (Nature Communications, 2020).
